# Assay results as given in IntAct's records for PubMed 31515488.
# B1: U2 small nuclear ribonucleoprotein A' (Homo sapiens), P09661 (parent)
# chain: MVKLTAELIEQAAQYTNAVRDRELDLRGYKIPVIENLGATLDQFDAIDFSDNEIRKLDGFPLLRRLKTLLVNNNRICRIGEGLDQALPCLTELILTNNSLVELGDLDPLASLKSLTYLSILRNPVTNKKHYRLYVIYKVPQVRVLDFQKVKLKERQEAEKMFKGKRGAQLAKDIARRSKTFNPGAGLPTDKKKGGPSPGDVEAIKNAIANASTLAEVERLKGLLQSGQIPGRERRSGPTDDGEEEMEEDTVTNGS
# B2: Arginine/serine-rich protein 1 (Homo sapiens), Q9BUV0 (parent)
# chain: MSNYVNDMWPGSPQEKDSPSTSRSGGSSRLSSRSRSRSFSRSSRSHSRVSSRFSSRSRRSKSRSRSRRRHQRKYRRYSRSYSRSRSRSRSRRYRERRYGFTRRYYRSPSRYRSRSRSRSRSRGRSYCGRAYAIARGQRYYGFGRTVYPEEHSRWRDRSRTRSRSRTPFRLSEKDRMELLEIAKTNAAKALGTTNIDLPASLRTVPSAKETSRGIGVSSNGAKPELSEKVTEDGTRNPNEKPTQQRSIAFSSNNSVAKPIQKSAKAATEEASSRSPKIDQKKSPYGLWIPI
# B3: Guanine nucleotide exchange factor for Rab-3A (Homo sapiens), Q8TBN0 (parent)
# chain: MWSGPPQPDQGLPPPLAAVPVPWKSTDPCQGHRESPGALVETSAGEEAQGQEGPAAAQLDVLRLRSSSMEIREKGSEFLKEELHRAQKELKLKDEECERLSKVREQLEQELEELTASLFEEAHKMVREANMKQAASEKQLKEARGKIDMLQAEVTALKTLVITSTPASPNRELHPQLLSPTKAGPRKGHSRHKSTSSTLCPAVCPAAGHTLTPDREGKEVDTILFAEFQAWRESPTLDKTCPFLERVYREDVGPCLDFTMQELSVLVRAAVEDNTLTIEPVASQTLPTVKVAEVDCSSTNTCALSGLTRTCRHRIRLGDSKSHYYISPSSRARITAVCNFFTYIRYIQQGLVRQDAEPMFWEIMRLRKEMSLAKLGFFPQEA
# partner: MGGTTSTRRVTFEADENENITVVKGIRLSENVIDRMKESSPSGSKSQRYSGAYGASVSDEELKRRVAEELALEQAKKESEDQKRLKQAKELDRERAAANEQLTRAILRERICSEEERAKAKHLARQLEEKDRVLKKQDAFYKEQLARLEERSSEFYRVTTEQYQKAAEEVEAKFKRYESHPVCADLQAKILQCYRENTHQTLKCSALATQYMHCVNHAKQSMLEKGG
# B4: Ropporin-1A (Homo sapiens), Q9HAT0 (parent)
# chain: MAQTDKPTCIPPELPKMLKEFAKAAIRVQPQDLIQWAADYFEALSRGETPPVRERSERVALCNRAELTPELLKILHSQVAGRLIIRAEELAQMWKVVNLPTDLFNSVMNVGRFTEEIEWLKFLALACSALGVTITKTLKIVCEVLSCDHNGGSPRIPFSTFQFLYTYIAKVDGEISASHVSRMLNYMEQEVIGPDGIITVNDFTQNPRVQLE
# partner: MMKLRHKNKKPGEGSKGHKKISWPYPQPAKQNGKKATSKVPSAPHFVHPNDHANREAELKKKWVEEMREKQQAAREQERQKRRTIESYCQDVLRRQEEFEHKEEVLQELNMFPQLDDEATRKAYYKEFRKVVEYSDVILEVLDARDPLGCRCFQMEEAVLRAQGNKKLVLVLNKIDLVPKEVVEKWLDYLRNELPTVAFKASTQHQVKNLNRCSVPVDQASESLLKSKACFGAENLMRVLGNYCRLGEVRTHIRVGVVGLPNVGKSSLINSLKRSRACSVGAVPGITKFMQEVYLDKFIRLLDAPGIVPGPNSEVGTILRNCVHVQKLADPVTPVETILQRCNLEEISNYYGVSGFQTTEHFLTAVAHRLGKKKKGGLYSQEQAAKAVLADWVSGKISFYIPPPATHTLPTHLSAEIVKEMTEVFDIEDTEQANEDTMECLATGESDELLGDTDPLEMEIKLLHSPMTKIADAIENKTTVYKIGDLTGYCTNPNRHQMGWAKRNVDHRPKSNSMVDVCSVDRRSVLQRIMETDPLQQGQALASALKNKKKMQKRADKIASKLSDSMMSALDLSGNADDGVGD
# B5: Retinoic acid receptor alpha (Homo sapiens), P10276 (parent)
# chain: MASNSSSCPTPGGGHLNGYPVPPYAFFFPPMLGGLSPPGALTTLQHQLPVSGYSTPSPATIETQSSSSEEIVPSPPSPPPLPRIYKPCFVCQDKSSGYHYGVSACEGCKGFFRRSIQKNMVYTCHRDKNCIINKVTRNRCQYCRLQKCFEVGMSKESVRNDRNKKKKEVPKPECSESYTLTPEVGELIEKVRKAHQETFPALCQLGKYTTNNSSEQRVSLDIDLWDKFSELSTKCIIKTVEFAKQLPGFTTLTIADQITLLKAACLDILILRICTRYTPEQDTMTFSDGLTLNRTQMHNAGFGPLTDLVFAFANQLLPLEMDDAETGLLSAICLICGDRQDLEQPDRVDMLQEPLLEALKVYVRKRRPSRPHMFPKMLMKITDLRSISAKGAERVITLKMEIPGSMPPLIQEMLENSEGLDTLSGQPGGGGRDGGGLAPPPGSCSPSLSPSSNRSSPATHSP
# partner: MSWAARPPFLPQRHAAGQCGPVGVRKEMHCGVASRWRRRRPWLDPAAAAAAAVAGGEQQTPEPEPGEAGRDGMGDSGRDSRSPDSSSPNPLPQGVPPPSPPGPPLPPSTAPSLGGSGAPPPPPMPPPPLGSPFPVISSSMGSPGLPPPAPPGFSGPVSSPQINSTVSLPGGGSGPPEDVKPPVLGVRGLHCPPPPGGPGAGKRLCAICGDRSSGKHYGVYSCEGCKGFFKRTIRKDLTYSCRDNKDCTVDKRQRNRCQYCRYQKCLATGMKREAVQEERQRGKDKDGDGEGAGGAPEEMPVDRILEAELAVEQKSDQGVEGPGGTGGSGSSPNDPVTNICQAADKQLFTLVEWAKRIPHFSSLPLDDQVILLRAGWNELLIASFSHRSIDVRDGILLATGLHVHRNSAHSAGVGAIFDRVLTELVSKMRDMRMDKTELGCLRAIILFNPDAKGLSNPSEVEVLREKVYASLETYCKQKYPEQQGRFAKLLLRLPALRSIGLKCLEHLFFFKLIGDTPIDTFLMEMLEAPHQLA
# B6: Cyclin-dependent kinase 4 inhibitor D (Homo sapiens), P55273 (parent)
# chain: MLLEEVRAGDRLSGAAARGDVQEVRRLLHRELVHPDALNRFGKTALQVMMFGSTAIALELLKQGASPNVQDTSGTSPVHDAARTGFLDTLKVLVEHGADVNVPDGTGALPIHLAVQEGHTAVVSFLAAESDLHRRDARGLTPLELALQRGAQDLVDILQGHMVAPL
# partner: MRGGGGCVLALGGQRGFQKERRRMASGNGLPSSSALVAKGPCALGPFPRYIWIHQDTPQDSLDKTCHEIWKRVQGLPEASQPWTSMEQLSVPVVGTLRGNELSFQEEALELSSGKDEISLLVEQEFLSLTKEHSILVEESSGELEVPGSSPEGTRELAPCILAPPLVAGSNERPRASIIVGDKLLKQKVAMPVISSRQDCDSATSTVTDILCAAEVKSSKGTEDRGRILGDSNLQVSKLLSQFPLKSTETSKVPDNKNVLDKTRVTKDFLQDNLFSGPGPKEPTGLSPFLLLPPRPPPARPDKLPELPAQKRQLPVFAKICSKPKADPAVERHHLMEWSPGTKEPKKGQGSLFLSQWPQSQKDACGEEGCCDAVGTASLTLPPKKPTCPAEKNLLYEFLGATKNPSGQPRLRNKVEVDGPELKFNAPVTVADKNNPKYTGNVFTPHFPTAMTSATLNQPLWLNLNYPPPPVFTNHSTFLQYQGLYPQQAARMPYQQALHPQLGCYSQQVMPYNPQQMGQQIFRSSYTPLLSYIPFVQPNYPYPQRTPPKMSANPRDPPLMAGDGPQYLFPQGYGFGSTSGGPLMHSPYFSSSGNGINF
# Variants of: B1
# Details: with ru2b_human SNRPB2, P08579
# Chain of ru2b_human SNRPB2, P08579 (P08579 whole entry): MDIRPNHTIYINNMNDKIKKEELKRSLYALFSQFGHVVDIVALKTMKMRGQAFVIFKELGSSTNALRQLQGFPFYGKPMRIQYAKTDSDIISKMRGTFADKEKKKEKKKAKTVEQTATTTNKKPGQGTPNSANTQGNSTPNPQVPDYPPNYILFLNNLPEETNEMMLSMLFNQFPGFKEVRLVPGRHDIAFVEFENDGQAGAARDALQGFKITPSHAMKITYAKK
row,effect of a mutation on the interaction,Variant
1,with no effect,P32S

# Variants of: B2
# Details: with clk2_human CLK2, P49760
# Chain of clk2_human CLK2, P49760 (P49760 whole entry, looked up): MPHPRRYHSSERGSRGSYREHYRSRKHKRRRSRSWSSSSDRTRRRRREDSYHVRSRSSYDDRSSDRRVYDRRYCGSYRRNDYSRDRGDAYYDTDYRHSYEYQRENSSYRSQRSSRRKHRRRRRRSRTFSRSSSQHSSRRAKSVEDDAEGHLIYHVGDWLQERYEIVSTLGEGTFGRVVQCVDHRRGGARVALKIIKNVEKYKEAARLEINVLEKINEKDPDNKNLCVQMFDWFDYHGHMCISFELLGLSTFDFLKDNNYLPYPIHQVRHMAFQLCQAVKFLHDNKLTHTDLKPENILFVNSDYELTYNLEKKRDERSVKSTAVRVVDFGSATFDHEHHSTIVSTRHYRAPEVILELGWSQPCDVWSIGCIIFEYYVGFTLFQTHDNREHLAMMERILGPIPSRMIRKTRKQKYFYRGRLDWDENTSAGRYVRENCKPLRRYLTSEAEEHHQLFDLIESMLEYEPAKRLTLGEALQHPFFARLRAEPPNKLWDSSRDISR
row,effect of a mutation on the interaction,Variant
1,with no effect,Y147H
2,with no effect,S20L
3,with no effect,V216A

# Variants of: B2
# Details: with clk3_human CLK3, P49761
# Chain of clk3_human CLK3, P49761 (P49761 whole entry, looked up): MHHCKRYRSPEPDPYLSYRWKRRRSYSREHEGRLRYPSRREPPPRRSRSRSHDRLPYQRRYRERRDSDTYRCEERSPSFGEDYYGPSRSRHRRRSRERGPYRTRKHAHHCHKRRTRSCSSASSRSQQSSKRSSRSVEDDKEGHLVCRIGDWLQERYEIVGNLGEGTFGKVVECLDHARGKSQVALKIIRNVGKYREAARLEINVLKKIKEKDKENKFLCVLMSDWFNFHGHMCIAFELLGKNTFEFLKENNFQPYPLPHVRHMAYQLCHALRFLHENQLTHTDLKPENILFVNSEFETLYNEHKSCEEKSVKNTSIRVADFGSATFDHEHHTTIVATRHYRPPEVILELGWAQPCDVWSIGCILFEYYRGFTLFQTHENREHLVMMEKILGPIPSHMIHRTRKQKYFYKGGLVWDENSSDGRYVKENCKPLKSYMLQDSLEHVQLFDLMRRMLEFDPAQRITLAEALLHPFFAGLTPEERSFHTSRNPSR
row,effect of a mutation on the interaction,Variant
1,with no effect,Y147H
2,with no effect,S20L
3,with no effect,V216A

# Variants of: B3
# Details: with mic19_human CHCHD3, Q9NX63
row,effect of a mutation on the interaction,Variant
1,with no effect,Q49R
2,with no effect,S190P

# Variants of: B4
# Details: with gnl3l_human GNL3L
row,effect of a mutation on the interaction,Variant
1,with no effect,C62W

# Variants of: B5
# Details: with rxrb_human RXRB
row,effect of a mutation on the interaction,Variant
1,with no effect,P318R

# Variants of: B6
# Details: with ca094_human C1orf94, Q6P1W5
row,effect of a mutation on the interaction,Variant
1,with no effect,P142S
